Assay results as given in the supplement of paper PMC11908140.

B1: library; numbered along this chain (parent)
chain: MRKPRAAVGSGHRKQAASQEGRQKHAKNNSQAKPSACDGLARQPEEVVLQASVSSYHLFRDVAEVTAFRGSLLSWYDQEKRDLPWRRRAEDEMDLDRRAYAVWVSEVMLQQTQVATVINYYTGWMQKWPTLQDLASASLEEVNQLWAGLGYYSRGRRLQEGARKVVEELGGHMPRTAETLQQLLPGVGRYTAGAIASIAFGQATGVVDGNVARVLCRVRAIGADPSSTLVSQQLWGLAQQLVDPARPGDFNQAAMELGATVCTPQRPLCSQCPVESLCRARQRVEQEQLLASGSLSGSPDVEECAPNTGQCHLCLPPSEPWDQTLGVVNFPRKASRKPPREESSATCVLEQPGALGAQILLVQRPNSGLLAGLWEFPSVTWEPSEQLQRKALLQELQRWAGPLPATHLRHLGEVVHTFSHIKLTYQVYGLALEGQTPVTTVPPGARWLTQEEFHTAAVSTAMKKVFRVYQGQQPGTCMGSKRSQVSSPCSRKKPRMGQQVLDNFFRSHISTDAHSLNSAAQ

Variants of: B1
Assay: 8OG:A repair function score (normalized; synonymous = 0, nonsense = -1) (normalized log-likelihood score); higher = more repair activity (WT-like)
Details: with 8OG:A DNA repair reporter (GFP) in HEK-293 MUTYH KO cells
Procedure, shortened: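 Lentiviral MUTYH cDNA NNN codon-scan libraries in HEK-293 MUTYH knockout cells (10 pg/ml doxycycline) were co-transfected with an 8OG:A GFP repair reporter plus mCherry. At 72 h, viable mCherry+ cells were sorted into GFP+ (repair) and GFP− bins, three replicates per tile, then tile amplicons were sequenced. Per-tile Rosace fitness scores became a normalized repair function score anchored on synonymous and nonsense distributions. Synonymous medians were set to 0 and nonsense to -1; variants under 300 counts per million at the start were removed.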

| Variant | 8OG:A repair function score |
| --- | --- |
| MRKPRAAVGSGHRKQAASQEGRQKHAKNNSQAKPSACDGLARQPEEVVLQASVSSYHLFRDVAEVTAFRGSLLSWYDQEKRDLPWRRRAEDEMDLDRRAYAVWVSEVMLQQTQVATVINYYTGWMQKWPTLQDLASASLEEVNQLWAGLGYYSRGRRLQEGARKVVEELGGHMPRTAETLQQLLPGVGRYTAGAIASIAFGQATGVVDGNVARVLCRVRAIGADPSSTLVSQQLWGLAQQLVDPARPGDFNQAAMELGATVCTPQRPLCSQCPVESLCRARQRVEQEQLLASGSLSGSPDVEECAPNTGQCHLCLPPSEPWDQTLGVVNFPRKASRKPPREESSATCVLEQPGALGAQILLVQRPNSGLLAGLWEFPSVTWEPSEQLQRKALLQELQRWAGPLPATHLRHLGEVVHTFSHIKLTYQVGGLALEGQTPVTTVPPGARWLTQEEFHTAAVSTAMKKVFRVYQGQQPGTCMGSKRSQVSSPCSRKKPRMGQQVLDNFFRSHISTDAHSLNSAAQ [Y428G] | -1.13 |
| MRKPRAAVGSGHRKQAASQEGRQKHAKNNSQAKPSACDGLARQPEEVVLQASVSSYHLFRDVAEVTAFRGSLLSWYDQEKRDLPWRRRAEDEMDLDRRAYAVWVSEVMLQQTQVATVINYYTGWMQKWPTLQDLASASLEEVNQLWAGLGYYSRGRRLQEGARKVVEELGGHMPRTAETLQQLLPGVGRYTAGAIASIAFGQATGVVDGNVARVLCRVRAIGADPSSTLVSQQLWGLAQQLVDPARPGDFNQAAMELGATVCTPQRPLCSQCPVESLCRARQRVEQEQLLASGSLSGSPDVEECAPNTGQCHLCLPPSEPWDQTLGVVNFPRKASRKPPREESSATCVLEQPGALGAQILLVQRPNSGLLAGLWEFPSVTWEPSEQLQRKALLQELQRWAGPLPATHLRHLGEVVHTFSHIKLTYQVDGLALEGQTPVTTVPPGARWLTQEEFHTAAVSTAMKKVFRVYQGQQPGTCMGSKRSQVSSPCSRKKPRMGQQVLDNFFRSHISTDAHSLNSAAQ [Y428D] | -1.09 |
| MRKPRAAVGSGHRKQAASQEGRQKHAKNNSQAKPSACDGLARQPEEVVLQASVSSYHLFRDVAEVTAFRGSLLSWYDQEKRDLPWRRRAEDEMDLDRRAYAVWVSEVMLQQTQVATVINYYTGWMQKWPTLQDLASASLEEVNQLWAGLGYYSRGRRLQEGARKVVEELGGHMPRTAETLQQLLPGVGRYTAGAIASIAFGQATGVVDGNVARVLCRVRAIGADPSSTLVSQQLWGLAQQLVDPARPGDFNQAAMELGATVCTPQRPLCSQCPVESLCRARQRVEQEQLLASGSLSGSPDVEECAPNTGQCHLCLPPSEPWDQTLGVVNFPRKASRKPPREESSATCVLEQPGALGAQILLVQRPNSGLLAGLWEFPSVTWEPSEQLQRKALLQELQRWAGPLPATHLRHLGEVVHTFSHIKLTYQVEGLALEGQTPVTTVPPGARWLTQEEFHTAAVSTAMKKVFRVYQGQQPGTCMGSKRSQVSSPCSRKKPRMGQQVLDNFFRSHISTDAHSLNSAAQ [Y428E] | -1.1 |
| MRKPRAAVGSGHRKQAASQEGRQKHAKNNSQAKPSACDGLARQPEEVVLQASVSSYHLFRDVAEVTAFRGSLLSWYDQEKRDLPWRRRAEDEMDLDRRAYAVWVSEVMLQQTQVATVINYYTGWMQKWPTLQDLASASLEEVNQLWAGLGYYSRGRRLQEGARKVVEELGGHMPRTAETLQQLLPGVGRYTAGAIASIAFGQATGVVDGNVARVLCRVRAIGADPSSTLVSQQLWGLAQQLVDPARPGDFNQAAMELGATVCTPQRPLCSQCPVESLCRARQRVEQEQLLASGSLSGSPDVEECAPNTGQCHLCLPPSEPWDQTLGVVNFPRKASRKPPREESSATCVLEQPGALGAQILLVQRPNSGLLAGLWEFPSVTWEPSEQLQRKALLQELQRWAGPLPATHLRHLGEVVHTFSHIKLTYQVAGLALEGQTPVTTVPPGARWLTQEEFHTAAVSTAMKKVFRVYQGQQPGTCMGSKRSQVSSPCSRKKPRMGQQVLDNFFRSHISTDAHSLNSAAQ [Y428A] | -1.05 |
| MRKPRAAVGSGHRKQAASQEGRQKHAKNNSQAKPSACDGLARQPEEVVLQASVSSYHLFRDVAEVTAFRGSLLSWYDQEKRDLPWRRRAEDEMDLDRRAYAVWVSEVMLQQTQVATVINYYTGWMQKWPTLQDLASASLEEVNQLWAGLGYYSRGRRLQEGARKVVEELGGHMPRTAETLQQLLPGVGRYTAGAIASIAFGQATGVVDGNVARVLCRVRAIGADPSSTLVSQQLWGLAQQLVDPARPGDFNQAAMELGATVCTPQRPLCSQCPVESLCRARQRVEQEQLLASGSLSGSPDVEECAPNTGQCHLCLPPSEPWDQTLGVVNFPRKASRKPPREESSATCVLEQPGALGAQILLVQRPNSGLLAGLWEFPSVTWEPSEQLQRKALLQELQRWAGPLPATHLRHLGEVVHTFSHIKLTYQVCGLALEGQTPVTTVPPGARWLTQEEFHTAAVSTAMKKVFRVYQGQQPGTCMGSKRSQVSSPCSRKKPRMGQQVLDNFFRSHISTDAHSLNSAAQ [Y428C] | -0.883 |
| MRKPRAAVGSGHRKQAASQEGRQKHAKNNSQAKPSACDGLARQPEEVVLQASVSSYHLFRDVAEVTAFRGSLLSWYDQEKRDLPWRRRAEDEMDLDRRAYAVWVSEVMLQQTQVATVINYYTGWMQKWPTLQDLASASLEEVNQLWAGLGYYSRGRRLQEGARKVVEELGGHMPRTAETLQQLLPGVGRYTAGAIASIAFGQATGVVDGNVARVLCRVRAIGADPSSTLVSQQLWGLAQQLVDPARPGDFNQAAMELGATVCTPQRPLCSQCPVESLCRARQRVEQEQLLASGSLSGSPDVEECAPNTGQCHLCLPPSEPWDQTLGVVNFPRKASRKPPREESSATCVLEQPGALGAQILLVQRPNSGLLAGLWEFPSVTWEPSEQLQRKALLQELQRWAGPLPATHLRHLGEVVHTFSHIKLTYQVFGLALEGQTPVTTVPPGARWLTQEEFHTAAVSTAMKKVFRVYQGQQPGTCMGSKRSQVSSPCSRKKPRMGQQVLDNFFRSHISTDAHSLNSAAQ [Y428F] | -0.153 |
